This note sets out measurements from patent publication US20240343816A1 (INSTITUTE OF HEALTH AND MEDICINE HEFEI COMPREHENSIVE …, published 2024).

The test deals with T1, human-derived IL-6Rα protein (human, UniProt P08887 20-365, limits assumed).
T1 construct: Described only as 'soluble human IL-6Rα protein'; also called h-IL-6Rα; soluble human IL-6Rα protein
T1 sequence (looked up): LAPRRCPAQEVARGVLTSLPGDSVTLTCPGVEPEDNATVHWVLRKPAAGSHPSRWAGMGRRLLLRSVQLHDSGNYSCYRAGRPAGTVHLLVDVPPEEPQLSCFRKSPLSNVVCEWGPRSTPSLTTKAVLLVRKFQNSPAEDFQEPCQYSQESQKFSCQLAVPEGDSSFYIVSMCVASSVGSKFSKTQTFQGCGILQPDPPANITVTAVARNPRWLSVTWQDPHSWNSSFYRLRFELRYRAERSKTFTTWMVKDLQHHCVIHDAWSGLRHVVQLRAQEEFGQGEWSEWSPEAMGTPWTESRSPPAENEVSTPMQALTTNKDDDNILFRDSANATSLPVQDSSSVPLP
As to the kind of experiment: SPR, h-IL-6Rα immobilized on a CM5 chip, 2S3-3D as analyte at 250, 125, 62.5, 31.2 and 15.6 nM. The protocol: The binding kinetics experiments for detecting antigen-antibody were carried out by Biocare Molecular Biological Interaction Platform. […] The binding time was set at 180 s/dissociation time at 200 s. The binding and dissociation of antigen and antibody were observed, and the data were analyzed by the corresponding analysis software.
A general note: Surface plasmon resonance follows binding to a sensor surface in real time, without labels.

As usually defined, the Kd is the free concentration of one partner at which half of the binding sites on the other are occupied at equilibrium, for simple one-to-one binding. A low value points to tighter binding.

B1: nanobody 2S3-3D (VHH)
VHH: QLQLVESGGGLVRPGGSLRLSCTIHGVTLDWYAVGWFRQAPGKEREGVSCISSSDGSTYYADSVKGRFTISRDNVKNTMYLQMNSLKPEDTAVYYCAMVFTTAQAMGVPFHDFEYDYWGPGTQVTVSS
notes: Alpaca-derived VHH expressed from pTT5 in 293F cells; also called anti-h-IL-6Rα nanobody; the nanobody
Turning to B1, the Kd was 6.33 nM.
